Consider 167 variants from the RNAGym collection of RNA variant scans (doi:10.1093/nar/gkz1192).

B1: CPEB3 Ribozyme (parent)
chain: UAACAGGGGGCCACAGCAGAAGCGUUCACGUCGCAGCCCCUGUCAGAUUCUGGUGAAUCUGCGAAUUCUGCUGUAUAUCUC

Variants of B1 are the subject of this data set. Kind of data set: self-cleavage, relative activity (ratio to wild type); higher = more cleavage; in vitro, sequencing. The essentials:
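After error-prone PCR and barcoding, CPEB3 ribozyme mutant libraries were transcribed with T7 RNA polymerase at 37°C for 5 hours, then given 15 min with DNase I before an EDTA stop, and they cleaved during both steps. Reverse transcription with template switching preceded Illumina sequencing. Relative activity divides a variant's cleaved/total read fraction by the unmutated ribozyme's. At least 5 reads were required per variant, and three batches were averaged.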
In the case of U26C C32G, the self-cleavage is 0.11.

In the case of U26C U67G, the self-cleavage turned out to be 0.21. With U26C U67A, the self-cleavage was determined as 0.24.

Consider U26C U67C, for which the self-cleavage amounted to 0.22.

For the variant C27A C32U, the self-cleavage was 0.3. The value for C27A U78C was 0.19; that for C27A U41C was 0.24; that for C27A U41A was 0.07. Regarding U26C A64U, the self-cleavage amounted to 0.26. As to U26C A64G, the self-cleavage came to 0.36. Consider U26C A64C, for which the self-cleavage is 0.31. Under U26C G73A stands 0.99; under U26C G73U, 1; under C27A U67C, 0.14. Under C27A U67A stands 0.18; under U26G U41A, 0.28. The value for U26G U41C was 0.4; that for C27A U43C was 0.18; that for C27A U43A was 0.39. Regarding U26C C50U, the self-cleavage turned out to be 0.27.

With U26C C50G, the self-cleavage came out at 0.22. Turning to U26C C50A, the self-cleavage is 0.44.

Consider C27A U54C, for which the self-cleavage was determined as 0.56. The value for U26A U49G was 0.41; that for U26A U49A was 0.49; that for U26A U49C was 0.3. For U26G U54A, the self-cleavage turned out to be 0.19.

C27A A45G: the self-cleavage stood at 0.22. Take C27G A75G: the self-cleavage was 0.3. The value for U26C C44U was 0.26. In the case of U26C C44A, the self-cleavage was determined as 0.09. Turning to C27A C39A, the self-cleavage was found to be 0.2.

Turning to C27G C50U, the self-cleavage stood at 0.23. The value for C27A A65G was 0.25. For the variant C27G A35U, the self-cleavage was 0.16. The value for C27A C37U was 0.21; that for U26G A47G was 0.39; that for U26A U51A was 0.81. Under U26A U51G stands 0.8. The value for U26A U51C was 0.84; that for C27A G46U was 0.18; that for U26C C40A was 0.26. Regarding U26C C40U, the self-cleavage amounted to 0.34.

As to C27G U69G, the self-cleavage came out at 0.14.

As to C27G U69C, the self-cleavage is 0.24. Under U26C C37A stands 0.13; under U26C C37G, 0.71.

Take U26C C37U: the self-cleavage was 0.32.

With C27U A56G, the self-cleavage worked out at 0.52. The value for C27U A56U was 0.21; that for U26A U78G was 0.5; that for U26A U78A was 0.67.

For U26A U78C, the self-cleavage worked out at 0.82. As to C27G A47U, the self-cleavage came to 0.05. Under C27A U80A stands 0.17; under C27A U80C, 0.66; under U26C A57G, 0.36.

As for U26C A57U, the self-cleavage amounted to 0.31. Regarding U26C A57C, the self-cleavage came out at 0.28. Turning to C27A U72C, the self-cleavage turned out to be 0.19. The value for U26C C68U was 0.5; that for U26C C68A was 0.28. As to U26C C79A, the self-cleavage stood at 0.61. For U26C C79U, the self-cleavage stood at 0.55.

Turning to U26C C79G, the self-cleavage is 0.59.

Turning to U26G C68U, the self-cleavage is 0.35. Regarding C27U G30A, the self-cleavage was 0.26. Turning to U26A G73A, the self-cleavage was 0.96. The value for U26A U31A was 0.34. Consider U26A U31C, for which the self-cleavage turned out to be 0.69. The value for U26C U78A was 0.51; that for U26C U78C was 0.42. With U26G A65G, the self-cleavage was 0.35. Turning to U26G A65U, the self-cleavage was found to be 0.15. The value for C27G U72C was 0.11. On to U26C G53A, for which the self-cleavage was 0.51.

In the case of U26C G63C, the self-cleavage was determined as 0.41. The value for U26C G63U was 0.61; that for U26C G63A was 0.35; that for U26A U74A was 1.31.

For the variant U26A U74C, the self-cleavage was 1.16. On to U26A U48G, for which the self-cleavage was found to be 0.37. With U26A U48A, the self-cleavage was found to be 0.35. Under U26A U48C stands 0.47; under C27U C38U, 0.32.

On to U26C U74G, for which the self-cleavage came to 0.78. Regarding U26C U74C, the self-cleavage amounted to 0.79. The value for U26C U74A was 0.73; that for U26C G52A was 0.76; that for U26C G52C was 0.27. In the case of U26G A75G, the self-cleavage was found to be 0.16. Under U26C A35C stands 0.32; under U26C A35U, 0.24.

On to U26C A35G, for which the self-cleavage was determined as 1.07. The value for C27G U41C was 0.18; that for U26C A65G was 0.3. For U26C A65C, the self-cleavage worked out at 0.28. For the variant U26C A65U, the self-cleavage stood at 0.3. The value for C27U G63A was 0.22; that for U26G A77G was 0.34; that for C27U C29A was 0.15. In the case of C27U U48C, the self-cleavage turned out to be 0.18. Under U26G U66G stands 0.2; under U26G U66C, 0.16. Under U26C G61C stands 0.25. The value for U26C G61U was 0.35. Turning to U26G A57G, the self-cleavage was 0.27. For the variant U26C U72A, the self-cleavage amounted to 0.36.

On to U26C U72G, for which the self-cleavage turned out to be 0.41.

Turning to U26C U72C, the self-cleavage was determined as 0.65.

With U26C G70U, the self-cleavage is 0.26. The value for U26C G70C was 0.12.

Turning to U26C G70A, the self-cleavage worked out at 0.59. Under C27A U48C stands 0.11; under C27A U51A, 0.38; under C27A U51C, 0.21. On to U26G U51G, for which the self-cleavage was determined as 0.33. Consider U26G U51A, for which the self-cleavage was determined as 0.42. As for U26A U66G, the self-cleavage was 0.42. As for U26A U66A, the self-cleavage was 0.38.

With U26A U66C, the self-cleavage was found to be 0.34. For the variant C27U A47U, the self-cleavage is 0.44. Under C27U A47G stands 0.28; under U26G U78A, 0.51. For U26G U78C, the self-cleavage was 0.3. Under U26G U80C stands 0.51. The value for U26G U80A was 0.35; that for U26G was 0.31.

Take U26C: the self-cleavage came to 0.5. Take U26A U41G: the self-cleavage was determined as 0.33.

As for U26A U41A, the self-cleavage was 0.25. The value for U26A U41C was 0.67; that for U26C G42A was 0.31; that for U26C G42C was 0.15. The value for U26C G42U was 0.25; that for C27U U31C was 0.46; that for C27U A57G was 0.17. Take C27G U76C: the self-cleavage is 0.22. Under U26G A35U stands 0.13; under U26G A35G, 0.8. The value for C27A A64G was 0.33.

In the case of C27A A64U, the self-cleavage was determined as 0.2.

Turning to U26C A47C, the self-cleavage was determined as 0.08. Take U26C A47U: the self-cleavage turned out to be 0.36. Under U26C A47G stands 0.48; under C27A U69A, 0.08; under C27A A77U, 0.14.

As to U26G G53A, the self-cleavage was 0.24.

With C27U U43C, the self-cleavage was 0.21.

As for C27U U43A, the self-cleavage amounted to 0.29. As for C27A C59A, the self-cleavage stood at 0.11. For U26G G73A, the self-cleavage turned out to be 0.89.

On to U26C C81U, for which the self-cleavage stood at 0.5. For U26C C81A, the self-cleavage is 0.63.

In the case of U26C U51A, the self-cleavage stood at 0.43. As to U26C U51G, the self-cleavage was determined as 0.46. Under U26C U51C stands 0.44. Consider U26A U60A, for which the self-cleavage was determined as 0.52. The value for U26A U60C was 0.34. Turning to U26C U41G, the self-cleavage was 0.31. Under U26C U41C stands 0.45. Under U26C U41A stands 0.28.

As for C27G C29U, the self-cleavage was 0.29. The value for U26G U31C was 0.25. The value for U26G U31A was 0.3. As for U26A G70C, the self-cleavage is 0.2.

Consider U26A G70A, for which the self-cleavage turned out to be 0.4.
